Test results: IntAct's records for PubMed 10814541

B1: Thioredoxin (Homo sapiens), P10599 (parent)
chain: MVKQIESKTAFQEALDAAGDKLVVVDFSATWCGPCKMIKPFFHSLSEKYSNVIFLEVDVDDCQDVASECEVKCMPTFQFFKKGQKVGEFSGANKEKLEATINELV
partner: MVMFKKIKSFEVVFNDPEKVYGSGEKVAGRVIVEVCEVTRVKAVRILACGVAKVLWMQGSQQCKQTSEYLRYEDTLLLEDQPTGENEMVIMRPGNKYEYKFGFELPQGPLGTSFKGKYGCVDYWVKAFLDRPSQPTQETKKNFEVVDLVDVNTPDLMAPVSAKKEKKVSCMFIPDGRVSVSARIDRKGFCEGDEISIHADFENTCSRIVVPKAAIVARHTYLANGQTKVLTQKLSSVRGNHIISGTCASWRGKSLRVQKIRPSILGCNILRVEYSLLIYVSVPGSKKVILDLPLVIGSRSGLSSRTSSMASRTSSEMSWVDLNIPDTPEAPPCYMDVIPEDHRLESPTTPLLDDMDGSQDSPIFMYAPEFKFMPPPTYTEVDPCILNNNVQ

Variants of: B1
Conditions: with txnip_human TXNIP

Row | Variant | effect of a mutation on the interaction
1 | C32S;C35S | decreasing interaction
